Experiment [1] concerns the target cynomolgus Vδ1 antigen DV1/GV77, recombinant heterodimer (食蟹猴 (cynomolgus)). The experiment in a line: SPR (Reichert 4SPR), antibody on protein A chip.
Experiment [2] has as its target L1 (DV1-GV4), soluble human Vδ1Vγ4 γδTCR heterodimer, leucine zipper (LZ) format (human). The experiment in a line: SPR (Reichert 4SPR), antibody on protein A chip.

cynomolgus Vδ1 antigen DV1/GV77, recombinant heterodimer (食蟹猴 (cynomolgus)), sequence (main, as listed by the source): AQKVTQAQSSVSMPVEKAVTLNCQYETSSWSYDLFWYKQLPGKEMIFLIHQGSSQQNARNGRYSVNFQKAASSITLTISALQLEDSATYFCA
L1 (DV1-GV4), soluble human Vδ1Vγ4 γδTCR heterodimer, leucine zipper (LZ) format (human), sequence (main, as listed by the source): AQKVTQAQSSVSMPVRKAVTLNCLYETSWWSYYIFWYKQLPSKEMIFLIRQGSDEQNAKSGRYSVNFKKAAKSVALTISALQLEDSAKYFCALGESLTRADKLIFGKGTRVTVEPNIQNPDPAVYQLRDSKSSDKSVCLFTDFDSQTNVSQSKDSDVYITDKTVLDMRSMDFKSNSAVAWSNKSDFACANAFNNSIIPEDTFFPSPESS

B1: ADT1-4(S74L) (antibody, V domains shown)
VH: QVQLQQSGPGLVKPSQTLSLTCAISGDSVSSKSAAWNWIRQSPSRGLEWLGRTYYRSKWSTDYAASVKSRITINPDTSKNQLSLQLNSVTPEDTAVYYCARTWSGYVDVWGQGTLVTVSS
VL: DIQMTQSPPALSASVGDRVTITCRASQDINDWLAWYQHKPGKAPKLLIYDASSLESGVPLRFSGSGSGTEFTLTISSLQPDDFATYYCQQSYSTPQVTFGQGTRLEIKR
B1: in experiment [1], the fold increase of affinity against ADT1-4 was 5 fold.

B2: ADT1-4-2(L74S) (antibody, part only; not given: mutant kappa chain, V domains shown, part only)
VH: EVQLQQSGPGLVKPSQTLSLTCAISGDSVSSKSAAWNWIRQSPSRGLEWLGRTYYRSKWSTDYAASVKSRITINPDTSKNQLSLQLNSVTPEDTAVYYCARTWVGYVDRWGQGTLVTVSS
Take B2: the fold decrease of affinity against ADT1-4-2 stood at 11 fold in experiment [2] and 23 fold in experiment [1].

Source of the values: patent CN117999282A.
